Columns and labels:
Human CEACAM5 (K398) = target: T1, Human CEACAM5 (K398) (human, UniProt P06731 35-685, limits assumed); assay: SPR, 37C, pH 7.4; reference E398
T1 construct: also called K398 allele
T1 sequence: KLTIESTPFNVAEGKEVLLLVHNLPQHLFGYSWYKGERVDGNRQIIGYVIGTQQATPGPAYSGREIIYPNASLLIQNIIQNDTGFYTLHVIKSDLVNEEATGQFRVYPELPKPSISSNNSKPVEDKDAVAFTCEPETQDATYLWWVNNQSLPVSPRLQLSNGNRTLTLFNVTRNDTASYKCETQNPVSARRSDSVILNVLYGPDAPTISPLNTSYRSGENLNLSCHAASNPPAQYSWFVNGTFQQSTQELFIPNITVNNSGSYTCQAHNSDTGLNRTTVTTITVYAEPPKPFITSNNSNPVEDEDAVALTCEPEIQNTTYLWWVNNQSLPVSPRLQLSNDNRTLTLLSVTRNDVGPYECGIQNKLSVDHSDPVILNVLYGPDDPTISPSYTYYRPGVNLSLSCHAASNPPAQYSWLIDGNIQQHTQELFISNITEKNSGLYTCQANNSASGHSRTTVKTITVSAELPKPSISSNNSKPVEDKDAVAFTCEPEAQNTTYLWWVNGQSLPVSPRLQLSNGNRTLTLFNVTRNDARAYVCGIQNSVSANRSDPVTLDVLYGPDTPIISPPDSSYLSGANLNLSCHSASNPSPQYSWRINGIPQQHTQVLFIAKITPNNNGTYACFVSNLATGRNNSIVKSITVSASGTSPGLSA

Human CEACAM5 I113T = target: T2, Human CEACAM5 I113T (human, UniProt P06731 35-685, limits assumed); assay: SPR, 37C, pH 7.4; reference E398
T2 sequence: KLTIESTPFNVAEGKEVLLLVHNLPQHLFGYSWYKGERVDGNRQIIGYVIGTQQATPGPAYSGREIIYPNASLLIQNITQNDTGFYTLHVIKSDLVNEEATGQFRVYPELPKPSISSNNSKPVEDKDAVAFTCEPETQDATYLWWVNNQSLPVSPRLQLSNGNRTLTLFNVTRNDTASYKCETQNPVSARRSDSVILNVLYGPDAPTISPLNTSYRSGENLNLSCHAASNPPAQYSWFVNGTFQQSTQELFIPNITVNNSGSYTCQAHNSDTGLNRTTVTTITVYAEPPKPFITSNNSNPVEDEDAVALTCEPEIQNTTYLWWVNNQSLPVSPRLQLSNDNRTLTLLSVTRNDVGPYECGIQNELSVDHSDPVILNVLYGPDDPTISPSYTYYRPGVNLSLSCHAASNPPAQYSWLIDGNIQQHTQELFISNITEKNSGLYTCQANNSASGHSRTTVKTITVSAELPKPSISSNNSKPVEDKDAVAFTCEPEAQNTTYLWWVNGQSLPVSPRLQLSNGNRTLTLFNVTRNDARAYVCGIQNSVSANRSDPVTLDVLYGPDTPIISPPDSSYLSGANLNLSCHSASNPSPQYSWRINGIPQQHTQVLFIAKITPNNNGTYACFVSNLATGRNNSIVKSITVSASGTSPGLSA

[1] = target: T3, soluble mouse Fc-human NKG2D dimer (human, UniProt P26718 78-216, limits assumed); assay: SPR, NKG2D-mFc captured, 37C, pH 7.4
T3 construct: also called NKG2D-mFc; human NKG2D fused to a mouse Fc
T3 sequence (looked up): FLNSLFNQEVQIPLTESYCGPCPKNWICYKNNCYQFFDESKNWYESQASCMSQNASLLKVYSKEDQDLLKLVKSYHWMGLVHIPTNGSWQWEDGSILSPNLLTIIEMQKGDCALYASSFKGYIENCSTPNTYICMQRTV
Experimental: (§1) Binding to NKG2D was assessed by SPR using a mouse Fc capture kit (Cytiva, #BR100838) immobilized onto a CM5 chip. Human and cynomolgus NKG2D fused to a mouse Fc were captured and AB0411, AB0466, or AB0621 was titrated from 600 nM.

Cyno NKG2D-mFc = target: T4, Cyno NKG2D-mFc (cynomolgus monkey, UniProt P61252 78-216, limits assumed); assay: SPR, NKG2D-mFc captured, 37C, pH 7.4
T4 construct: also called cynomolgus NKG2D fused to a mouse Fc
T4 sequence (looked up): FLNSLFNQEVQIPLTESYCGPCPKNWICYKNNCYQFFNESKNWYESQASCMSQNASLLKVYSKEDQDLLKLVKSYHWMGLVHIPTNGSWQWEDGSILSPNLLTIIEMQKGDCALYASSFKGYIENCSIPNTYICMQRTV
Experimental: as §1

[2] = target: T5, human CEACAM6 on Ba/F3 cells (human, UniProt P40199 35-320); assay: flow cytometry on Ba/F3 cells expressing human CEACAM6, fold over background (FOB), 5-fold dilutions from 1600 nM
T5 construct: whole, on cells
T5 sequence (looked up): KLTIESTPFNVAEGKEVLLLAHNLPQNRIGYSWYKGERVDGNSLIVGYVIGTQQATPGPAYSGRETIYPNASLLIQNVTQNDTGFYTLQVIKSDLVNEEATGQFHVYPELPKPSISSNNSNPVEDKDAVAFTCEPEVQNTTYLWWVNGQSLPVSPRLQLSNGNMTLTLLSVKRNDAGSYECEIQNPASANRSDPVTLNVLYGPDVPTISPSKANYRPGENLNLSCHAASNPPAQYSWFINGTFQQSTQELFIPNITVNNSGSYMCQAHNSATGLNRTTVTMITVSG
Experimental: To examine the binding specificity of the TriNKETs to CEACAM5 compared to other CEACAM family members, Ba/F3 cells were engineered to express one of human CEACAM1, CEACAM6, CEACAM8, or cynomolgus CEACAM5. CEACAM5 TriNKETs were evaluated by flow cytometry starting at 1600 nM followed by 7 5-fold dilutions.

B1: AB0621 F3' CEACAM5 TriNKET (bispecific antibody, human IgG1, kappa)
chain: DIVMTQSPDSLAVSLGERATINCKSSHSLLYGNFQNNYLAWYQQKPGQPPKLLIYWASTRESGVPDRFSGSGSGTDFTLTISSLQAEDVAVYYCQQYYSYPYTFGCGTKLEIKGGGGSGGGGSGGGGSGGGGSQVQLVQSGAEVKKPGASVKVSCKASGYTFTAYTIHWVRQAPGQCLEWMGYINPSSGYTEYNQKFKDRTTLTADTSISTAYMELSRLRSDDTAVYYCTREGGLLWFDYWGQGTLVTVSSGSDKTHTCPPCPAPELLGGPSVFLFPPKPKDTLMISRTPEVTCVVVDVSHEDPEVKFNWYVDGVEVHNAKTKPREEQYNSTYRVVSVLTVLHQDWLNGKEYKCKVSNKALPAPIEKTISKAKGQPREPRVYTLPPCRDELTKNQVSLTCLVKGFYPSDIAVEWESNGQPENNYKTTPPVLVSDGSFTLYSKLTVDKSRWQQGNVFSCSVMHEALHNHYTQKSLSLSPG
heavy: EVQLVESGGGLVKPGGSLRLSCAASGFTFSSYSMNWVRQAPGKGLEWVSSISSSSSYIYYADSVKGRFTISRDNAKNSLYLQMNSLRAEDTAVYYCARGAPIGAAAGWFDPWGQGTLVTVSSASTKGPSVFPLAPSSKSTSGGTAALGCLVKDYFPEPVTVSWNSGALTSGVHTFPAVLQSSGLYSLSSVVTVPSSSLGTQTYICNVNHKPSNTKVDKKVEPKSCDKTHTCPPCPAPELLGGPSVFLFPPKPKDTLMISRTPEVTCVVVDVSHEDPEVKFNWYVDGVEVHNAKTKPREEQYNSTYRVVSVLTVLHQDWLNGKEYKCKVSNKALPAPIEKTISKAKGQPREPQVCTLPPSRDELTENQVSLTCLVKGFYPSDIAVEWESNGQPENNYKTTPPVLDSDGSFFLYSWLTVDKSRWQQGNVFSCSVMHEALHNHYTQKSLSLSPG
light: DIQMTQSPSSVSASVGDRVTITCRASQGISSWLAWYQQKPGKAPKLLIYAASSLQSGVPSRFSGSGSGTDFTLTISSLQPEDFATYYCQQGVSFPRTFGGGTKVEIKRTVAAPSVFIFPPSDEQLKSGTASVVCLLNNFYPREAKVQWKVDNALQSGNSQESVTEQDSKDSTYSLSSTLTLSKADYEKHKVYACEVTHQGLSSPVTKSFNRGEC
- KD/KD(Ref) (Human CEACAM5 (K398)): 1.1 fold
- KD/KD(Ref) (Human CEACAM5 I113T): 1.7 fold
- Kd [1]: 570 nM
- koff [1]: 0.14 s⁻¹
- kon [1]: 320000 M⁻¹ s⁻¹
- Kd (Cyno NKG2D-mFc): 520 nM
- koff (Cyno NKG2D-mFc): 0.12 s⁻¹
- kon (Cyno NKG2D-mFc): 320000 M⁻¹ s⁻¹
- binding result [2]: no binding (tested: 1600 nM)

— patent publication US20240124607A1 (Merck Sharp & Dohme, published 2024)
